Experimental findings from patent US11242370B2, “Neuregulin-4 compounds and methods of use” (Eli Lilly and Company, priority 2019, dated 2022) are described below.

The assay concerns the target T1, human HER2/HER4 (Homo sapiens, UniProt Q15303).
T1 construct: expressed in transfected cells
Kind of assay: Human HER2/HER4 phospho-ERK 1/2 assay, purified proteins, CHO-K1 cells. The class given is cell-based. The note with it: for % Maximal NRG1 activity: maximal signal relative to native human NRG1 per plate; for EC50: purified proteins, phospho-ERK1/2. On the procedure: A cell based assay utilizing CHO-K1 cells overexpressing human or rat HER receptors is used to determine activity of NRG4 compounds. CHO-K1 cells (ATCC) are grown in DMEM-F12 3:1 with 5% FBS with 20 mM HEPES, 40 μg/mL L-Proline, lx antibiotics and were split 1:5 every 2-3 days with TripLE Express (Gibco). Cells are transfected with plasmid DNA encoding HER receptors in pairs (hHER2-3, hHER2-4, rHER2-3 and rHER2-4) with Fugene 6 (Promega) according to the manufacturer's instructions. […] Transfected cells are selected with Puromycin (12 ug/ml) and Hygromycin (1 mg/ml) for 3-4 weeks and clonal lines are obtained by limited dilution cloning into 96 well plates. Clonal lines are selected by appropriate gene expression of HER2, HER3 or HER4 by Taqman method. Lines with appropriate receptor expression are confirmed by NRG1 induced phospho-ERK 1/2 responses. Clones are grown up, harvested, aliquoted into cryovials and then frozen under liquid nitrogen for long-term storage.
A phospho-ERK1/2 activity assay is utilized with CHO-K1 cells overexpressing human or rat HER receptors to determine potencies and selectivity of purified NRG4 compounds. CHO-K1 cell lines expressing the human or rat HER receptors are cultured with selection medium (DMEM-F12 3:1 with 5% FBS with 20 mM HEPES, 40 μg/mL L-Proline, 1× antibiotics, 12 μg/mL puromycin, 1 mg/mL Hygromycin B). On Day −1 (the day before phospho-ERK1/2 assay), cells are washed once with PBS, detached with enzyme free cell dissociation solution (GIBCO cat #13151-014), and resuspended in plating medium (DMEM-F12 3:1 with 20 mM HEPES, lx antibiotics, 0.2% FBS). Cells are plated in a 96-well Poly-D-Lysine coated plate (BD cat #354640) at 10,000 cells per 0.1 mL per well. Cells are cultured in a tissue culture incubator at 37° C. 5% CO2 overnight. On Day 1 (the day of pERK1/2 assay), plates are incubated at room temperature for 30 min. The culture media are removed followed by addition of 504, ligand at various concentrations diluted in PBS-20 mM HEPES-0.005% BSA. Native human NRG1 and NRG4 peptides are purchased from Reprokine (Tampa, Fla.). The stimulation time is 30 min (except for hHER2-4 1H6 line in which 15 min is used for stimulation). At the end of stimulation, ligands are removed and 704, Lysis buffer (made according to manufacturer's recipe, Perkin Elmer cat #ALSU-PERK-A10K) is added. Plates are incubated at room temperature for 10 min on plate shaker with 350 rpm agitation, then on ice for 1 hour without shaking. 304, of cell lysis is transferred to a 96-well white Optiplate (Perkin Elmer cat #6002290) for phospho-ERK1/2 assay. Briefly 7.5 μL acceptor beads are added to 30 μL lysis in Optiplate. The plate is covered with aluminum foil and incubated at room temperature for 1 hour on plate shaker with 350 rpm agitation. Then 7.5 μL donor beads are added and the plate is covered with aluminum foil and incubated at room temperature for 2 hours on plate shaker with 350 rpm agitation or at 4° C. for overnight (warm up plate at room temperature for 2 h before reading). Alpha signal data are obtained on an Envision instrument (Alpha Technology-compatible plate reader). Donor beads and acceptor beads are made according to assay protocol. The data shown are generated with either the AlphaScreen SureFire p-ERK1/2 (Thr202/Tyr204) assay kit (Cat #TGRES50k) or the AlphaLISA® SureFire® Ultra™ p-ERK 1/2 (Thr202/Tyr204) assay kit (Perkin Elmer cat #ALSU-PERK-A10K). The activity of the NRG1 peptide was similar in both types of assays. Raw data obtained from the Envision instrument is imported into GraphPad Prism software (version 7). The EC50 value is generated by a variable slope-four parameter dose response curve. The % of maximal NRG1 activity data are generated by expressing the average maximal raw data for the NRG4 compound over the average maximal raw data for the native human NRG1 per plate and multiplying by 100. Data are provided below in Tables 7-9. N values reflect number of independent assays run. […]

Regarding “WT NRG1: wild type human NRG1; native peptide purchased from Reprokine in Tables 7-9; comparator in the screening assays of Tables 4 and 6”, the “% Maximal NRG1 activity” value was 100% and the EC50 (in general, the midpoint of the concentration-response curve) was determined as 0.67 ± 0.07 nM.
The corresponding values for “WT NRG4: wild type human NRG4 (SEQ ID NO:1); parental hFcNRG4 in screening (Tables 4-6), native peptide from Reprokine in Tables 7-9 (DHEEPCGPSHKSFCLNGGLCYVIPTIPSPFCRCVENYTGARCEEVFL; listed as Homo sapiens)” are 75 ± 4 (N = 8) % and 90.1 ± 33.2 nM.

B1: Example 10: NRG4 D1G/V22Q/E44K, (GGGGS)3 linker, SEQ ID NO: 19, fused to IgG Fc dimer SEQ ID NO: 6 and 7 (protein)
chain 1: GGGGSGGGGSGGGGSGHEEPCGPSHKSFCLNGGLCYQIPTIPSPFCRCVENYTGARCEKVFL
chain 2: ECPPCPAPPVAGPSVFLFPPKPKDTLMISRTPEVTCVVVDVSHEDPEVQFNWYVDGVEVHNAKTKPREEQFNSTFRVVSVLTVVHQDWLNGKEYKCKVSNKGLPAPIEKTISKTKGQPREPQVYTLPPSREEMTKNQVSLWCLVKGFYPSDIAVEWESNGQPENNYKTTPPVLDSDGSFFLYSKLTVDKSRWQQGNVFSCSVMHEALHNHYTQKSLSLSPG
chain 3: ECPPCPAPPVAGPSVFLFPPKPKDTLMISRTPEVTCVVVDVSHEDPEVQFNWYVDGVEVHNAKTKPREEQFNSTFRVVSVLTVVHQDWLNGKEYKCKVSNKGLPAPIEKTISKTKGQPREPQVYTLPPSREEMTKNQVSLSCAVKGFYPSDIAVEWESNGQPENNYKTTPPVLDSDGSFFLVSKLTVDKSRWQQGNVFSCSVMHEALHNHYTQKSLSLSPG
Consider B1, for which the “% Maximal NRG1 activity” value was 82 ± 4 (N = 8) % and the EC50 worked out at 0.16 ± 0.02 nM.
